US20150225457A1

Target: mouse CEACAM1 on SEB-responsive T cells (mouse), P31809
Assay: cell-based or functional assay

B1: mouse CEACAM1 N-domain Fc fusion protein, P31809 35-142 (Fc fusion, UniProt P31809 35-142, looked up, not shown: a dimerising Fc or GST)
chain: EVTIEAVPPQVAEDNNVLLLVHNLPLALGAFAWYKGNTTAIDKEIARFVPNSNMNFTGQAYSGREIIYSNGSLLFQMITMKDMGVYTLDMTDENYRRTQATVRFHVHP
Q: Which TIM3 up-regulation on SEB-responsive T-cells after in vitro re-stimulation (% Mean Fluorescence) does the source give for B1 here?
A: Its TIM3 up-regulation on SEB-responsive T-cells after in vitro re-stimulation (% Mean Fluorescence) is 29.
